Assay results taken from PMC9967645, “OAT3 Participates in Drug–Drug Interaction between Bentysrepinine and Entecavir through Interactions with M8—A Metabolite of Bentysrepinine—In Rats and Humans In Vitro” (Molecules, 2023).

Substrate: CN(C)CCOc1ccc(CC(NC(=O)c2ccccc2)C(=O)O)cc1
Experiment: cells, lysate or membranes named
Details: other: hOAT3-HEK293 cells, Eadie–Hofstee plot, 2 to 1000 µM, 5 min; pH 7.4
Description: The hOAT1-HEK293, hOAT3-HEK293 and mock cells were cultured in Dulbecco modified Eagle medium (DMEM) containing 10% fetal bovine serum (FBS) and 1% penicillin/streptomycin in an atmosphere of 5% CO2 air at 37 °C. The HEK293 cells were plated on 24-well plates at a density of 5 × 10^5 cells/well. […] Uptake assay was initiated by adding 1 mL of the transporter buffer containing Y101, M8, ETV or probe substrate. Following incubation with gentle shaking, the uptake was terminated at designated time by removing the transporter buffer and washing cells three times with 1 mL of ice-cold HBSS. Next, substrates of Y101, M8, ETV, PAH and ES in cell monolayer were released by lysing the cells with 0.3 mL of 0.1% Triton X-100 for 2 h and determined by liquid chromatography–tandem mass spectrometry (LC–MS/MS). In the time-course uptake assay, Y101 (2.0 µM) and M8 (10 µM) in the presence or absence of PRO (100 µM) were measured in hOAT1-HEK293, hOAT3-HEK293 and mock cells. The concentration-dependent uptake of M8 was determined in hOAT3-HEK293 cells, and incubation time (5 min) was optimized. […] The uptake of ETV (10 µM) with or without Y101 or M8 was also measured in hOAT1-HEK293 and hOAT3-HEK293 cells, respectively. […] Protein concentrations were measured by the bicinchoninic acid procedure (Solarbio, Beijing, China) using bovine serum albumin as the standard. […]

B1: hOAT3 (Homo sapiens) (protein)
chain: MTFSEILDRVGSMGHFQFLHVAILGLPILNMANHNLLQIFTAATPVHHCRPPHNASTGPWVLPMGPNGKPERCLRFVHPPNASLPNDTQRAMEPCLDGWVYNSTKDSIVTEWDLVCNSNKLKEMAQSIFMAGILIGGLVLGDLSDRFGRRPILTCSYLLLAASGSGAAFSPTFPIYMVFRFLCGFGISGITLSTVILNVEWVPTRMRAIMSTALGYCYTFGQFILPGLAYAIPQWRWLQLTVSIPFFVFFLSSWWTPESIRWLVLSGKSSKALKILRRVAVFNGKKEEGERLSLEELKLNLQKEISLAKAKYTASDLFRIPMLRRMTFCLSLAWFATGFAYYSLAMGVEEFGVNLYILQIIFGGVDVPAKFITILSLSYLGRHTTQAAALLLAGGAILALTFVPLDLQTVRTVLAVFGKGCLSSSFSCLFLYTSELYPTVIRQTGMGVSNLWTRVGSMVSPLVKITGEVQPFIPNIIYGITALLGGSAALFLPETLNQPLPETIEDLENWSLRAKKPKQEPEVEKASQRIPLQPHGPGLGSS
Km: 367 µM
Vmax: 414 pmol/min/mg protein
